Test: soluble on expression in E. coli; label from the status in PepcDB or PDB records

Sequence | soluble on expression in E. coli
MNIAELYGKMGKHSWRIMDAIFKNLWDYEYVPLQLISSHARIGEEKARNILKYLSDLRVVQNRQKDYEGSTFTFIGLSLYSLHRLVRSGKVDAIGKLMGEGKESAVFNCYSEKFGECVVKFHKVGHTSFKKVKEKRDYGDLHFSVLAIRSARNEFRALQKLQGLAVPKVYAWEGNAVLMELIDAKELYRVRVENPDEVLDMILEEVAKFYHRGIVHGDLSQYNVLVSEEGIWIIDFPQSVEVGEEGWREILERDVRNIITYFSRTYRTEKDINSAIDRILQE | soluble
MNIHKALCLSAGVSVALISLAAQAAETVTIATVNNGDMIRMQRLSKIFEQQHPDIKLNWVVLEENVLRQRLTTDIATQGGQFDVLTIGTYETPLWGAKQWLEPITDLAPEYDLEDIFPSVRQGLSVKNTLYALPFYGESTITYYRTDLFKQAGLSMPERPTWTQLGEFAAKLHQPDKGVYGMCLRGKAGWGENIALLSTMANAFGARWFDEHWKPELNSPEWANAANFYVNTLKNYGPPGVSSNGFNETLALFNSGKCALWVDASVAGSFTTDKEQSKVVDSVGFAPAPVEVTDKGSSWLYAWSLAIPATSRHKDAAKAFITWATSKAYIQLVAEKDGITNVPPGTRTSTYSEAYLKAAPFAKVTLQMMQHADPAQPSAKPVPYVGIQYVTIPEFQAIGTSVGKLFSAAVTGQTTTEQALTAAQAVTEREMKRAGYPK | not soluble
MNILLCCAAGMSSSLIVTKMEKAAEARGIEVKIWAVSGSEVNSHIDEADVLLLGPQVRYLLPKMKELCKGKGVPVDVIQSVHYGLCNGEAILQAALSMKP | not soluble
MNINRNKIVQLADTDTIENLTSALSQRLIADQLRLTTAESCTGGKLASALCAAEDTPKFYGAGFVTFTDQAKMKILSVSQQSLERYSAVSEKVAAEMATGAIERADADVSIAITGYGGPEGGEDGTPAGTVWFAWHIKGQNYTAVMHFAGDCETVLALAVRFALAQLLQLLL | not soluble
MNIREIAAKCSKCGYCTTCPTYRIEGWETVSPRGKIQLALKYVDGEIDVDQKIVKDIFKCSVCGLCQEVCPVELPLIDFWEELRRTLVQKGLAPLSVHRKLREILEHHHHHH | not soluble
MNITKTLCLCAALSGAAGVQAMENREFVTQQDNTRVNNYQTNRPEASKRLFVSQEVERQIDHIKQLLTNAKLAWMFENCFPNTLDTTVHFDGKEDTFVYTGDIHAMWLRDSGAQVWPYVQLANKDPELKKMLAGVINRQFKCINIDPYANAFNMNSEGGEWMSDLTDMKPELHERKWEIDSLCYPIRLAYHYWKTTGDASVFSDEWLQAIANVLKTFKEQQRKDDAKGPYRFQRKTERALDTMTNDGWGNPVKPVGLIASAFRPSDDATTFQFLVPSNFFAVTSLRKAAEILNTVNRKPALAKECTALADEVEKALKKYAVCNHPKYGKIYAFEVDGFGNQLLMDDANVPSLIALPYLGDVKVTDPIYQNTRKFVWSEDNPYFFKGSAGEGIGGPHIGYDMIWPMSIMMKAFTSQNDAEIKTCIKMLMDTDAGTGFMHESFNKNDPKNFTRAWFAWQNTLFGELILKLVNEGKVDLLNSIQLEHHHHHH | soluble
MNKCFLKIAIVAGEESGDLLGADLISCLSQQTGCKIDLIGVGGRHLKALGLKSFFDFQDIALIGLGTVLKKLPLLLIHIHNLSKFIAKEQPDCLIIIDSPDFTHRVAKKVHVLAPSIPIIKYIAPTVWAWRPERAKAMRKFVDHVLAVFPFEKKIMQDLGGPPTTYVGHRLLTYPPLLTIQSKKRHQSEKKHVFAKQTSSPTLVILPGSRNLEIRYLMPIFREAVEILIQRIPHLHIILPTLPHFVDEIRAFVQSWKNKVEILVDEDAKWHAFSKADVALAALGTVSLELALAKIPMVLCYKLDRFSKLFIFPKIMLWSAALPNIISDKPIVPEYFNEFLRPGMLARQIEELLYNPLLRQAQLDVFEMVEQKMKTEVPSGVIAAQTIVTLLKKRSGSLKFS | not soluble
MNKFIQSLPKVELHLHIEGTLEPELMLELAQRNSINIPFNSVEEIRDAYNFHNLQSFLDIYFQGADVLVHEQDFFDLTWAYLLRCQEDNVLHTEIFFDPQAHTERGILFDTVVNGIDRALNKGVSELGITSKLIMCFLRHLDEESAFKTLTQAQAHKDKIIGVGLDSTEIGNPANKFERVFKQAIEQGFLTVAHAGEEGPADNISEALSLLKITRIDHGVRCSEDASLVKQLVSERIPLTVCPLSNIKLKVFDRMEQHNIVTLLRQGVCVTINSDDPAYFGGYMTDNFVAVNNAHPMNKAEIAQFTFNAIEASFVSPSEQERLRQVTQKYIALHQE | not soluble
MNKFSLFFALTATLMTITESAVPTASISAHVLDISGGSPAGGVQILAYIQQNDDWTKIGSEFTQDNGRVDWVSPDFTLIPGTYRLVYITEPYYKAKNVESFYPYVEVVFNIRDATQHYHVPLTLSPWGYSTYRGS | not soluble
MNKHTTLPNLMQKIVSDEDLQSIIEAVGYHDTSRTFTVRTLVDFFLLAALHEWKSFRHGADVAKMYGLPTFHYSTVSKKAKEVPYEVMKRLFALVVSKCNRQTRRSLRFPKALRVVDSTTVTVGKNRLAWAPYHGERSGVKMHVAYSPEQQMPSDIVETVGLRHDGPVGEQLTDAQSVLVEDRAYFKIERIARFVEQKPPFVFG | not soluble
MNKIETDTLLLPVIGESPAGDDIEYDPVYSEIREARQNDPDYMSQGEWAVSEPRRADWRKVRKLCEVTLRNKSKDLQISCWYVESLTHLYALEGMHCGLEYLAKFISQYWTTCWPSQEEGQEIRYSKLVRLDIDLSEYLKAYPLLEDKEITLSEWYKVLSFEHGASLSEAGKERLIESEGDHSVESFKRAVGKYNPRKVSEQLLQLYDLPDKIDEIESSYFFHTHEDIHHIFAKTRHIISEITELLSRFLPQETLDHSSVSQFLGKPDSRDTRTALPEEKKEFYSALTPSTDKEMSREKAIEQLEKIAIFFRQSEPTSPVPYLLERAIRWSTMTMSEWLEELLKDNDSMEQINRVLKG | not soluble
MNKKHYLLYGSERYALAILRPLQAAIRARGDEAAWFFDGPGAEDLAADEQLLSVAQVRLWKPYAVITSSNAVPHFFPGVKVEVFHGFNAGKPRHVYSRGFFDLYCTTGPRDTAAFGELADRLGHFAVKQTGWPKIDPFMGEMSQALVPVRQPPVILYHSTFSPSWSAADILYDEIKRLSLRGEWRWIVTFHPKMNPDVVARYRALQSEHLCFSDNDNILELFPHVDMMCSDTSSALNEFLLTCKPVVTFKNRNPGPQLIDIDDPAQFESAIRRALSRPPELLSAIRAYADAIHPYWDGRSSERVLEAIDAFVAEGGRNRRTKPLNLWRKFKLRKRIGYWGPAWL | not soluble
MNKKRMIAMVSTALLVTGCAEVGNAQTVAVENSGQSVQKNIVKSIQSQANPLKTIEPSKPFEDLKPLKKMIGNAQYVGLGENTHGSSEIFTMKFRLVKYLVTEMGFTNFAMEEDWGNGLKLNEYIQTGKGNPREFLKLLYPTDEIIAMIEWMKDYNADPSNKKKIQFIGLDLKALDQGSFNKVIDYVRLHRPDLLAEVEENYKELSSFTGSIQEYMKLTPKLKEKFKANAERVARLLKDENEQANTEIIPSEYIWAKATASAIEKFTTMLLPNDYPSIIKLHEQYLADHAMWAQETFGGKTMVWAHNIHIAKGIIDEKLYPYVAGQFLKERLDNNYVTIGSTTTEGNFTLYSEYNPSTGGKITTDTIPQDVKSFNYTLGKVPYKMFLLDNRHLKGQAEKWVKAKRPLLSIGGQILPNSSVYFDTSLLEQFDIIFHIRKTSPSHIKLEHHHHHH | soluble
MNKPTLGIDLDTTLNTLDREWVKRYNEIYKDKLLPSDIKGWDIENYVKPECGKKIYDILKEPHFFRNLGVQPFAETALEELTSIFNIYIVSATHYKVCEDKGNWIKEKFPFISYQNIIFCHNKGLVHLDILIDDNPLNLENFKGNKILFDAHHNKSENRFVRARDWYEAKALCESLKDFL | not soluble
MNKQPGEQPVSCATSTGKSEKERQKDEPPRSRAEAGMMRGGGRLPQPRDTPMEVPNMIAAMPIQMTGFVDLAPHTILDVLAQTTSLMIVQCLEPLEIFTGIETPNRYVVHDMYCRPLLYCMERSSFFARQHQGSQRNFAMQCMDIFGAPVMNCFRSRPCCSCDDFLATEFLGQRIGMMKRECCDDNFHLVGTGSNEPLLVRSPGCACCGGTQVFPVMTYNGAKIGEIVRLYPGFMQEWYTDADTYIVHFPPDLPPILKILLISSTFLIDYTFFENRGGNQRGGYGHGGYGYY | not soluble
MNLDDIESLSEQIARHIGEQIITGELVEGERIQELRIAKELDVSRGSVREALLLLERTHLIEIFPRRGAIVSEMSSQQVKALFDSSVLVLGHIVQKISESWRVHEAEQLQHLIEQLNEHVKAGDTEKFYDGIFEYLAQQHDMVMNAYLMKFYKELLPSLRRSYFLTLNTSRRELQEALALFKLVTDAILIRKSHQATLFMEDFCRHLRNLVLESLTRMKQIELAWARRSRRSSNR | not soluble
MNLEQLINVLGLLVWIAARAVSRVGPHGSGLVYRELHDFYGYLQLDLLGPVVAGNRSVRTWREQADRARGTFAWRSGLNTSRILPVGSMYRGSDALPAGLYRPEEEVFLLLNRCHGPLSTPKNACLAEVGVANATFLSRFNVGDFHGASWENGTAPDGEPGVCLEHHHHHH | not soluble
MNLKQISAIIIVKNAKQTLLECLNSLKDFDEIILLNNESSDNTLNIANEFKKDFANLHIYHSAFIGFGALKNLALSYAKNDWILSIDADEVLENECIKELKNLELQEDNIIALSRKNLYKGEWIKACGWWPDYVWRIFNKNFTRFNDNLVHESLVLPSNAKKIYLKNGLRHYAFRDISHLIDKMQYYSSLWAKQNIHKKSGVLKANLRAFWTFFRNYFLKNGFLYGYKGFIISVCNALGTFFKYMKLYELQKQKPKTCALIITTYNQKERLKLVLDSVKNLAFLPNEVLIADDGSKEDTARLIEEYQKDFPCPLKHIWQEDEGFRAAKSRNNAIKASKSEYIILIDGDMILEKDFVKNHLEFAKRKVILQGSRVILNKNESEEILKNNNYSLAFNKKGFKNQRSIFLAKCVYKFSKLTKKFFKKSQLVKGSKTCNMSFYKSDFEAIEGFNEKFIGWGREDSEFVARFLFNDGVFKRLKFNALAYHIYHEENSKNMLEINHQIYLETIKNEKTTWRLEHHHHHH | not soluble
MNLRTQKFHMYFKQWIELYKEGAVRPVTYQKYQMSHKHLVTLAPDLHMDELKRRTYQELINEFAANHEKQTTLDFHHHLKAAILDALDEGILEQDPTRKVLEHHHHHH | not soluble
MNLSNLWQSCLLQLQDQVSASDLSTWLRPLQADVVADNHIVLYASNMFVKGWVETHYLAQIQQICQTLAQNPELRISLKEGVKPAPKIVESTPNTSLRSESAVDFQAESSASVKFESHLNTKHLFDNFVEGKSNQLARAVGQKLAQAPGEPSANPFFLYGGTGLGKTHLLHAIGNGILADKPNARVLYIHANNFMQHMVKAVRDNKMDQFKKFYRSLDALLVDDIQFFAEKEKTQEEFFHIFNSLFETGRQIILTSDRYPKEIEKIEERLKSRFGWGLTTAIEPPDLETRVAILLKKAEEHNMNLPEEVAFFIAQRLRTNVRELEGALNRVKAMQDFKGGDIDIDFVRDTLKDILALQERLVTIENIQKVVAEYYRIKVSDLKSKSRARSVTRPRQIAMALAKELTNRSLPEIGRAFDRDHTTVLNACREVPKFREQDNSIQEDWANLIRTLSALEHHHHHH | soluble
